# Assay results from paper PMC9606253.
# Experiments:
# [1] = target: SMARCA4 (mouse (endogenous in mouse brain)) (UniProt Q3TKT4); test: co-IP; brain nuclear extract partially denatured with 0, 0.25, 0.5, 1, 2 or 4 M urea (15 min, room temperature), dialysed, then IP with anti-SMARCA4 (BRG1 H-10) or mouse IgG; bound protein normalised to immunoprecipitated SMARCA4 (n = 3)
# [2] = target: SS18 (mouse (endogenous in mouse brain)) (UniProt Q62280); test: co-IP; three successive immunodepletions of E17.5 Brwd1^FLAG-HA brain nuclear extract with antibodies to SMARCA4, SS18 or SS18L1 or IgG; signal left in the final flow-through by blot densitometry, normalised to IgG
# [3] = target: SMARCA4 (mouse (endogenous in mouse brain)) (UniProt Q3TKT4); test: co-IP; three successive immunodepletions of adult Brwd1^FLAG-HA brain nuclear extract with antibodies to SMARCA4 or SS18L1 or IgG; signal left in the final flow-through by blot densitometry, normalised to IgG
# [4] = target: SS18L1 (mouse (endogenous in mouse brain)) (UniProt Q8BW22); test: as above
# Chain of SS18L1 (mouse (endogenous in mouse brain)) (Q8BW22 whole entry): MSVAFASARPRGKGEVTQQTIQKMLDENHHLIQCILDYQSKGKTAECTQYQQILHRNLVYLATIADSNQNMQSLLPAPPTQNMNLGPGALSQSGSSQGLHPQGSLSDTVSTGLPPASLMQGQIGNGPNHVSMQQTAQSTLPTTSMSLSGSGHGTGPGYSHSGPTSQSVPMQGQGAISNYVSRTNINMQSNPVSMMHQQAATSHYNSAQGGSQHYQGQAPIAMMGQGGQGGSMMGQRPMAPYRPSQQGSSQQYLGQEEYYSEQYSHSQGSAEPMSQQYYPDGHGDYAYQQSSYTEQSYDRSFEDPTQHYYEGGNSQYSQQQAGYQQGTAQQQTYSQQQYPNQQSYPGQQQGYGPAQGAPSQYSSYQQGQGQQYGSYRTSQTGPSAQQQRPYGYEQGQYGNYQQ
# Chain of SMARCA4 (mouse (endogenous in mouse brain)) (Q3TKT4 whole entry): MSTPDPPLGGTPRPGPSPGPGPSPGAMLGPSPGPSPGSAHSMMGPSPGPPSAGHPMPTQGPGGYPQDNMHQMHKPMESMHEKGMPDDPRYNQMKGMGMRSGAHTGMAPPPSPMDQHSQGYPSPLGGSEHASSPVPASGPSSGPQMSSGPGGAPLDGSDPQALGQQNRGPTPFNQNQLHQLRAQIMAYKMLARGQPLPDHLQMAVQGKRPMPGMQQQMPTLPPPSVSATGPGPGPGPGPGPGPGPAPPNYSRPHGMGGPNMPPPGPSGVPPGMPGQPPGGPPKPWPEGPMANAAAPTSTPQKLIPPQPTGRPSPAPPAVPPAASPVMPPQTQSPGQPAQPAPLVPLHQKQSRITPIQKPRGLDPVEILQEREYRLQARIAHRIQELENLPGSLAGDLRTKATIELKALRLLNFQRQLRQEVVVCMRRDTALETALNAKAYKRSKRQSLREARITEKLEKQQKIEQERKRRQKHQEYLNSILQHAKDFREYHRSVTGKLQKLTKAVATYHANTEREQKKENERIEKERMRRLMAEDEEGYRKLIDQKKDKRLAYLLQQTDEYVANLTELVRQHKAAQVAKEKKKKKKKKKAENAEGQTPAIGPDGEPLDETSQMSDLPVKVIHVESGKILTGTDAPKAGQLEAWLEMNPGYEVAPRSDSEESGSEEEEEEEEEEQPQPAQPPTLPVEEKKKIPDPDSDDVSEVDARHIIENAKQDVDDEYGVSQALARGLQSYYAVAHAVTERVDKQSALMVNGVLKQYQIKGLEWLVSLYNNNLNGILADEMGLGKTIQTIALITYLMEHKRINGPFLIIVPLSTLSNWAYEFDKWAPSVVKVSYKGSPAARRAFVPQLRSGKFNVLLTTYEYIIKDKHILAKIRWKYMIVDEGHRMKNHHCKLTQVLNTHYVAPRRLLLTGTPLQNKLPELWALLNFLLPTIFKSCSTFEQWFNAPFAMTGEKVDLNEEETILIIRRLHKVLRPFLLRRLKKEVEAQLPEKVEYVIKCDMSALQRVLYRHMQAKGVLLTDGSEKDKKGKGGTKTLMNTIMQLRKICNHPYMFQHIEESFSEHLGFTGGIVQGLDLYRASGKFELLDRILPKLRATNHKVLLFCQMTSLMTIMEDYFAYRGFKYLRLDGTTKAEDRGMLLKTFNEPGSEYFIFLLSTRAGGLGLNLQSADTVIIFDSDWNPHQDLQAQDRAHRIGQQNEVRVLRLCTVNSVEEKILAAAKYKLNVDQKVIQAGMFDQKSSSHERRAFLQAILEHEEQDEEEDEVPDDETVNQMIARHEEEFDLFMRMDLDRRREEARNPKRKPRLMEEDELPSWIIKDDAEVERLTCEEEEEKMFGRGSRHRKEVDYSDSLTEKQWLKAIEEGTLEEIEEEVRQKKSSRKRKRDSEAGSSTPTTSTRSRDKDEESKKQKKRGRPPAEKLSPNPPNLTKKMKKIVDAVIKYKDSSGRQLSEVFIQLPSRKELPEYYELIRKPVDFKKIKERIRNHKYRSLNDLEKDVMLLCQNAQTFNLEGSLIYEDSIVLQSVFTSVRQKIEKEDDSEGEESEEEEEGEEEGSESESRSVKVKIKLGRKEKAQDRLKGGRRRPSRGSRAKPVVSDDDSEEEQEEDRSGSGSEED
# Chain of BRWD1-FLAG-HA, Q921C3 1-2304 (natural protein) (Q921C3 whole entry): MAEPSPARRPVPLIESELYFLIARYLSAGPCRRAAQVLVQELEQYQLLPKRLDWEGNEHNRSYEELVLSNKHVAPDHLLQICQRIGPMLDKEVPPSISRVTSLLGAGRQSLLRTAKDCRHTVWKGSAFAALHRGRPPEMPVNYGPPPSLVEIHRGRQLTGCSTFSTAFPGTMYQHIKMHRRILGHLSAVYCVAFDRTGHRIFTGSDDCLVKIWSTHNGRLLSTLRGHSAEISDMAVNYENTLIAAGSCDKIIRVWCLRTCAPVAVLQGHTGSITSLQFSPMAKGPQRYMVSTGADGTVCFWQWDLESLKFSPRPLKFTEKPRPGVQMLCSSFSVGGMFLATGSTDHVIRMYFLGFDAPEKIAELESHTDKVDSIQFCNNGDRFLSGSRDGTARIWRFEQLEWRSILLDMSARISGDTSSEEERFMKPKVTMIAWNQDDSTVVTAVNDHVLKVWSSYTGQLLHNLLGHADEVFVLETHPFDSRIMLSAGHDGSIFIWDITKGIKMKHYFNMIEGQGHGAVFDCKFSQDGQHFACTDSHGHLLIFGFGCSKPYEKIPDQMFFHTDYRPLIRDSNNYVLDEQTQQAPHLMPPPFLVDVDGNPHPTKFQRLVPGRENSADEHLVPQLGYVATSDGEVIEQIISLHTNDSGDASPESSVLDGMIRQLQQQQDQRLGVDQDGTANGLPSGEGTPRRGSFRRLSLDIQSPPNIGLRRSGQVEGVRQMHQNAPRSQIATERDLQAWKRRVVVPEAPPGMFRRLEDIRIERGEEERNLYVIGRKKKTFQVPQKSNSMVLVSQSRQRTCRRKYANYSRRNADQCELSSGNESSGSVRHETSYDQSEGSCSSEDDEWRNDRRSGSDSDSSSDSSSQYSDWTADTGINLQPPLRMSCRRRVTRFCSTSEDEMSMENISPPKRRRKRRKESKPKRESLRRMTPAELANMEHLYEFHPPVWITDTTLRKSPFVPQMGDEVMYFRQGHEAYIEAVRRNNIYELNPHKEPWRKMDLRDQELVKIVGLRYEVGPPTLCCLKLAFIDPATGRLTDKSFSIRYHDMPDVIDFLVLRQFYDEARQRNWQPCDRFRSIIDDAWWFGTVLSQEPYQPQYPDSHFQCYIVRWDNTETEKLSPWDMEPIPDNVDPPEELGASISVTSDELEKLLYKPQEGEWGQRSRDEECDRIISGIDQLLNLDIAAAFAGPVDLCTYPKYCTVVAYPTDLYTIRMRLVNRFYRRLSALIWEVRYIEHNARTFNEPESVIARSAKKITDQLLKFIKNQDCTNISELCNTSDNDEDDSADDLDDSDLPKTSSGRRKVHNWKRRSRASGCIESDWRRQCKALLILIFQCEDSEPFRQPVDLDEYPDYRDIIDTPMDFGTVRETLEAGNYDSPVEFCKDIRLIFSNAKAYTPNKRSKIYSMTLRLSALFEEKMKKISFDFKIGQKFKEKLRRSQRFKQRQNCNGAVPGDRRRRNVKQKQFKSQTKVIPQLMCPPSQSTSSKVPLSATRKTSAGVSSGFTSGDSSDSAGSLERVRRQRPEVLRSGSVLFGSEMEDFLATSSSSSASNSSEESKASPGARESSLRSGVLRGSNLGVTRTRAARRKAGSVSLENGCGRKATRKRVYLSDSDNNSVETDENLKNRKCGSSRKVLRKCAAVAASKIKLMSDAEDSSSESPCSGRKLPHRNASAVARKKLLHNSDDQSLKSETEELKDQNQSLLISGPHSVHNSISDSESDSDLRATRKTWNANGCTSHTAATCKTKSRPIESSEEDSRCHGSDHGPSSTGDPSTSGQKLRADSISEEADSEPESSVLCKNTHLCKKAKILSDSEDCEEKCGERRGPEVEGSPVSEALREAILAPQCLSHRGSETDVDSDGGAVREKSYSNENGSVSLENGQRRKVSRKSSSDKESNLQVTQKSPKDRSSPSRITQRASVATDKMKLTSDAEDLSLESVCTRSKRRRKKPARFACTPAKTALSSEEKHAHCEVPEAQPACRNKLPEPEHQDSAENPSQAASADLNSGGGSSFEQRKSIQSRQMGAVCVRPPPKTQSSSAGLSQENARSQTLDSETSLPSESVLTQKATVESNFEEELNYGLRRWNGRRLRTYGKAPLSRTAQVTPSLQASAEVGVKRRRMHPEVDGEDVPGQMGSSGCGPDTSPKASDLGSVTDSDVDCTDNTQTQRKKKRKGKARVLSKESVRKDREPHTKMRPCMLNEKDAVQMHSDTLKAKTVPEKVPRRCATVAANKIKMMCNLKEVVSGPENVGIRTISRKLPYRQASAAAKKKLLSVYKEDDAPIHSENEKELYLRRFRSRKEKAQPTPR
# Chain of SS18 (mouse (endogenous in mouse brain)) (Q62280 whole entry): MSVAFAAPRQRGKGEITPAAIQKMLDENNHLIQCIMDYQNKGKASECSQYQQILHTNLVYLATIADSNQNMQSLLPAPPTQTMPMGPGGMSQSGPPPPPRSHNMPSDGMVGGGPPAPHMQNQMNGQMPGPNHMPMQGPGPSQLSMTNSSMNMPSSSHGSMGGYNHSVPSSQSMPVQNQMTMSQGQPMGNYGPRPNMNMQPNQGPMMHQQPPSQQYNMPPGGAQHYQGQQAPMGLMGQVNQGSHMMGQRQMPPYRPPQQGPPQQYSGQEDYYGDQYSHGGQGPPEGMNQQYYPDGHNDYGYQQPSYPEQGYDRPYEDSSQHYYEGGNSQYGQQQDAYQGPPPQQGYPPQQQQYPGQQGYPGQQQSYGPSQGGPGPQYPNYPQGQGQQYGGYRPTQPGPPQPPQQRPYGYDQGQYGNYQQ
substance,measurement,setting,value
"BRWD1-FLAG-HA, Q921C3 1-2304 (natural protein)",percent destabilized in 0.5 M urea,[1],60%
same,percent remaining bound through 4 M urea,[1],40%
same,percent co-depleted,[2],20%
same,percent co-depleted,[3],20%
same,percent co-depleted,[4],20%
